Source: the MegaScale stability set (Tsuboyama et al. 2023)

B1: EHEE_rd4_0726 (parent)
chain: DIEITTNGEEDAKRVIKELQKRNLEYHIEVHGNQWVIKVR
B2: EHEE_rd2_0191 (parent)
chain: TTEYTFTDDEEARRAIEELKKRGLTFRYEKHGTTWRVRVD

Variants of: B1
Experiment: folding stability dG (cDNA display proteolysis); higher = more stable
Settings: PBS, room temperature
For I2H, the “folding stability dG” value was 8.63 kJ/mol.
With I2S the “folding stability dG” value was 6.91 kJ/mol.
In the case of I2M, the “folding stability dG” value is reported as 10.2 kJ/mol.
In the case of Q20P, the “folding stability dG” value is reported as -1.87 kJ/mol.
For V15K, the “folding stability dG” value was 5 kJ/mol.
In the case of D11G, the “folding stability dG” value is reported as 8.04 kJ/mol.
For E9R, the “folding stability dG” value was 9.15 kJ/mol.
In the case of E25F, the “folding stability dG” value is reported as 10.4 kJ/mol.
With E25R the “folding stability dG” value was 10.8 kJ/mol.
With W35Q the “folding stability dG” value was 2.14 kJ/mol.
For I4T, the “folding stability dG” value was 2.21 kJ/mol.
In the case of V39W, the “folding stability dG” value is reported as 7.68 kJ/mol.
With I16Y the “folding stability dG” value was 2.67 kJ/mol.
With R40G the “folding stability dG” value was 7.57 kJ/mol.
With L19A the “folding stability dG” value was 3.02 kJ/mol.
In the case of K17H, the “folding stability dG” value is reported as 9.47 kJ/mol.
For H27S, the “folding stability dG” value was 12.8 kJ/mol.
For V30F, the “folding stability dG” value was 8.64 kJ/mol.
For V30Q, the “folding stability dG” value was 8.94 kJ/mol.
With D1Y the “folding stability dG” value was 14.1 kJ/mol.
In the case of K13Y, the “folding stability dG” value is reported as 11.4 kJ/mol.
In the case of V36K, the “folding stability dG” value is reported as 7 kJ/mol.
For V36E, the “folding stability dG” value was 0.192 kJ/mol.
In the case of E18H, the “folding stability dG” value is reported as 8.45 kJ/mol.
For E29K, the “folding stability dG” value was 6.96 kJ/mol.
In the case of H31S, the “folding stability dG” value is reported as 8.85 kJ/mol.
In the case of H31D, the “folding stability dG” value is reported as 7.49 kJ/mol.

Variants of: B2
Experiment: as above
Settings: PBS, room temperature
In the case of T34F, the “folding stability dG” value is reported as 9.01 kJ/mol.
With T34M the “folding stability dG” value was 8.7 kJ/mol.
With T34Y the “folding stability dG” value was 8.58 kJ/mol.
For T34Q, the “folding stability dG” value was 7.44 kJ/mol.
In the case of T34G, the “folding stability dG” value is reported as 6.52 kJ/mol.
With T34V the “folding stability dG” value was 10.1 kJ/mol.
In the case of T34S, the “folding stability dG” value is reported as 6.4 kJ/mol.
With T34H the “folding stability dG” value was 7.28 kJ/mol.
For T34R, the “folding stability dG” value was 6.43 kJ/mol.
For T34D, the “folding stability dG” value was 4.32 kJ/mol.
In the case of T34K, the “folding stability dG” value is reported as 6.19 kJ/mol.
For T34L, the “folding stability dG” value was 9.73 kJ/mol.
In the case of T34A, the “folding stability dG” value is reported as 6.17 kJ/mol.
For T34N, the “folding stability dG” value was 6.19 kJ/mol.
For T34I, the “folding stability dG” value was 10.4 kJ/mol.
With T34E the “folding stability dG” value was 8.67 kJ/mol.
With T34C the “folding stability dG” value was 10.5 kJ/mol.
In the case of T34W, the “folding stability dG” value is reported as 7.31 kJ/mol.
With H31F the “folding stability dG” value was 9.02 kJ/mol.
In the case of H31K, the “folding stability dG” value is reported as 8.62 kJ/mol.
For H31S, the “folding stability dG” value was 8.77 kJ/mol.
For H31N, the “folding stability dG” value was 9.23 kJ/mol.
With H31M the “folding stability dG” value was 9.14 kJ/mol.
For H31Y, the “folding stability dG” value was 8.54 kJ/mol.
With H31T the “folding stability dG” value was 9.58 kJ/mol.
In the case of H31R, the “folding stability dG” value is reported as 8.33 kJ/mol.
For H31D, the “folding stability dG” value was 9.98 kJ/mol.
In the case of H31L, the “folding stability dG” value is reported as 9.58 kJ/mol.
With H31Q the “folding stability dG” value was 9.27 kJ/mol.
For H31E, the “folding stability dG” value was 9.36 kJ/mol.
In the case of H31W, the “folding stability dG” value is reported as 7.92 kJ/mol.
In the case of H31G, the “folding stability dG” value is reported as 2.62 kJ/mol.
With H31A the “folding stability dG” value was 7.31 kJ/mol.
For H31I, the “folding stability dG” value was 11.8 kJ/mol.
In the case of H31V, the “folding stability dG” value is reported as 10.7 kJ/mol.
In the case of R22F, the “folding stability dG” value is reported as 6.48 kJ/mol.
In the case of R22L, the “folding stability dG” value is reported as 9.4 kJ/mol.
For R22Y, the “folding stability dG” value was 6.51 kJ/mol.
In the case of R22K, the “folding stability dG” value is reported as 8.44 kJ/mol.
With R22H the “folding stability dG” value was 6.86 kJ/mol.
For R22N, the “folding stability dG” value was 7.09 kJ/mol.
With R22D the “folding stability dG” value was 4.31 kJ/mol.
In the case of R22G, the “folding stability dG” value is reported as 5.35 kJ/mol.
For R22W, the “folding stability dG” value was 7.45 kJ/mol.
In the case of R22A, the “folding stability dG” value is reported as 8.77 kJ/mol.
With R22I the “folding stability dG” value was 6.37 kJ/mol.
In the case of R22V, the “folding stability dG” value is reported as 5.13 kJ/mol.
In the case of R22S, the “folding stability dG” value is reported as 8.06 kJ/mol.
With R22M the “folding stability dG” value was 9.18 kJ/mol.
For R22T, the “folding stability dG” value was 6.53 kJ/mol.
In the case of R22E, the “folding stability dG” value is reported as 5.64 kJ/mol.
In the case of R22Q, the “folding stability dG” value is reported as 8.79 kJ/mol.
In the case of G23S, the “folding stability dG” value is reported as 3.16 kJ/mol.
For G23M, the “folding stability dG” value was 3.79 kJ/mol.
In the case of G23C, the “folding stability dG” value is reported as 5.47 kJ/mol.
With G23A the “folding stability dG” value was 3.18 kJ/mol.
With G23F the “folding stability dG” value was 3.2 kJ/mol.
With G23N the “folding stability dG” value was 5.87 kJ/mol.
For G23D, the “folding stability dG” value was 2.16 kJ/mol.
With G23Y the “folding stability dG” value was 2.29 kJ/mol.
For G23K, the “folding stability dG” value was 5.05 kJ/mol.
For G23W, the “folding stability dG” value was 0.862 kJ/mol.
For G23H, the “folding stability dG” value was 5.26 kJ/mol.
In the case of G23R, the “folding stability dG” value is reported as 4.95 kJ/mol.
With G23E the “folding stability dG” value was 1.79 kJ/mol.
For G23L, the “folding stability dG” value was 2.49 kJ/mol.
In the case of G23T, the “folding stability dG” value is reported as -1.31 kJ/mol.
In the case of G23Q, the “folding stability dG” value is reported as 4.07 kJ/mol.
For V39M, the “folding stability dG” value was 4.26 kJ/mol.
With V39F the “folding stability dG” value was 5.2 kJ/mol.
With V39P the “folding stability dG” value was -3.96 kJ/mol.
With V39E the “folding stability dG” value was -2.97 kJ/mol.
With V39W the “folding stability dG” value was 3.92 kJ/mol.
In the case of V39I, the “folding stability dG” value is reported as 8.47 kJ/mol.
For V39L, the “folding stability dG” value was 6.72 kJ/mol.
In the case of V39S, the “folding stability dG” value is reported as -1.32 kJ/mol.
In the case of V39Q, the “folding stability dG” value is reported as -2.7 kJ/mol.
With V39H the “folding stability dG” value was -1.62 kJ/mol.
For V39A, the “folding stability dG” value was 0.95 kJ/mol.
For V39T, the “folding stability dG” value was 2.35 kJ/mol.
In the case of V39Y, the “folding stability dG” value is reported as 2.51 kJ/mol.
With K30Q the “folding stability dG” value was 6.45 kJ/mol.
With K30F the “folding stability dG” value was 5.12 kJ/mol.
In the case of K30R, the “folding stability dG” value is reported as 8.34 kJ/mol.
In the case of K30L, the “folding stability dG” value is reported as 6.46 kJ/mol.
For K30N, the “folding stability dG” value was 3.9 kJ/mol.
In the case of K30T, the “folding stability dG” value is reported as 3.73 kJ/mol.
In the case of K30V, the “folding stability dG” value is reported as 7.6 kJ/mol.
For K30M, the “folding stability dG” value was 5.98 kJ/mol.
With K30A the “folding stability dG” value was 2.34 kJ/mol.
For K30E, the “folding stability dG” value was -0.0628 kJ/mol.
For K30Y, the “folding stability dG” value was 5.04 kJ/mol.
In the case of K30S, the “folding stability dG” value is reported as 2.38 kJ/mol.
With K30W the “folding stability dG” value was 3.43 kJ/mol.
In the case of K30H, the “folding stability dG” value is reported as 6.31 kJ/mol.
For K30I, the “folding stability dG” value was 7.78 kJ/mol.
In the case of W35S, the “folding stability dG” value is reported as 1.29 kJ/mol.
With W35L the “folding stability dG” value was 3.95 kJ/mol.
In the case of W35F, the “folding stability dG” value is reported as 3.72 kJ/mol.
For W35A, the “folding stability dG” value was -2.41 kJ/mol.
In the case of W35R, the “folding stability dG” value is reported as -2.41 kJ/mol.
With W35H the “folding stability dG” value was 6.64 kJ/mol.
In the case of W35V, the “folding stability dG” value is reported as 6.02 kJ/mol.
In the case of W35Y, the “folding stability dG” value is reported as 5.08 kJ/mol.
For W35C, the “folding stability dG” value was 7.4 kJ/mol.
With W35I the “folding stability dG” value was 8.99 kJ/mol.
In the case of W35T, the “folding stability dG” value is reported as 6.24 kJ/mol.
With W35N the “folding stability dG” value was -3.51 kJ/mol.
In the case of W35M, the “folding stability dG” value is reported as 3.51 kJ/mol.
In the case of K21W, the “folding stability dG” value is reported as 5.72 kJ/mol.
For K21R, the “folding stability dG” value was 9.82 kJ/mol.
For K21T, the “folding stability dG” value was 7.64 kJ/mol.
In the case of K21S, the “folding stability dG” value is reported as 8.1 kJ/mol.
In the case of K21V, the “folding stability dG” value is reported as 6.95 kJ/mol.
For K21Y, the “folding stability dG” value was 6.25 kJ/mol.
For V37F, the “folding stability dG” value was 7.85 kJ/mol.
In the case of V37L, the “folding stability dG” value is reported as 7.36 kJ/mol.
With V37P the “folding stability dG” value was -2.13 kJ/mol.
For V37C, the “folding stability dG” value was 1.75 kJ/mol.
In the case of V37I, the “folding stability dG” value is reported as 11.2 kJ/mol.
For V37M, the “folding stability dG” value was 1.51 kJ/mol.
With Y28R the “folding stability dG” value was -2.65 kJ/mol.
For Y28E, the “folding stability dG” value was 1.87 kJ/mol.
In the case of Y28H, the “folding stability dG” value is reported as 2.48 kJ/mol.
For Y28C, the “folding stability dG” value was 10.5 kJ/mol.
For Y28I, the “folding stability dG” value was 12.4 kJ/mol.
For Y28M, the “folding stability dG” value was 7.78 kJ/mol.
With Y28Q the “folding stability dG” value was 3.2 kJ/mol.
In the case of Y28A, the “folding stability dG” value is reported as 10 kJ/mol.
For Y28V, the “folding stability dG” value was 13.5 kJ/mol.
For Y28S, the “folding stability dG” value was 5.62 kJ/mol.
For Y28F, the “folding stability dG” value was 8.63 kJ/mol.
With Y28T the “folding stability dG” value was 7.44 kJ/mol.
For Y28W, the “folding stability dG” value was 9.19 kJ/mol.
In the case of Y28K, the “folding stability dG” value is reported as 1.95 kJ/mol.
For Y28L, the “folding stability dG” value was 8.97 kJ/mol.
With Y28D the “folding stability dG” value was -4.13 kJ/mol.
With Y28G the “folding stability dG” value was 0.134 kJ/mol.
With G32W the “folding stability dG” value was -1.26 kJ/mol.
In the case of G32Q, the “folding stability dG” value is reported as 3.72 kJ/mol.
